Source: article PMC7412812, “The RNA-binding protein SERBP1 functions as a novel oncogenic factor in glioblastoma by bridging cancer metabolism and epigenetic regulation”

Molecular target: T1, SERBP1 (human, UniProt Q8NC51 1-408)
T1 sequence: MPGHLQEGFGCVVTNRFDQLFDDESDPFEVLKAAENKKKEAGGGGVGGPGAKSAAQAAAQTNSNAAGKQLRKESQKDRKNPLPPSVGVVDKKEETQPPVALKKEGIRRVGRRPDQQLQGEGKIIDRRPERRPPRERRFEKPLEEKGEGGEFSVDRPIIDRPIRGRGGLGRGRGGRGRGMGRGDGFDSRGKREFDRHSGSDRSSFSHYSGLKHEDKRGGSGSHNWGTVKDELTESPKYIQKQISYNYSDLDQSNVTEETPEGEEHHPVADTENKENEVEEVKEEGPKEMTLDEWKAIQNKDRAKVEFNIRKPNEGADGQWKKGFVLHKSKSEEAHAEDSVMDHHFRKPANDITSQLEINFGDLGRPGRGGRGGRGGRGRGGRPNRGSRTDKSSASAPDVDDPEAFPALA
Assay: fluorescence polarization; 5 nM RNA, 0-1000 nM protein; FP: 10 mM HEPES pH 7.5, 50 mM KCl, room temperature
Settings: protein: recombinant; tags: N-terminal His6, proteolytically removed (Methods; Results call it an N-terminus His6 fusion); label: 5'-fluorescein; single strand

Q: With GCGCGGG (ssRNA) [SERBP1 RNA 7-mer] as the binder, how does the Kd read?
A: The Kd was roughly 47 nM.
